Reference: PMC7261172 (2020)

Target: E. coli β-clamp labelled with RED-maleimide dye (MST) (E. coli, UniProt P0A988 1-366, RED-maleimide fluorescent dye (RED-Maleimide Labelling Kit, NanoTemper); site not stated)
Experiment: MST

Binder | Kd
Ac-MDRFSLKWKKKRKIRRRRRRRRRRR-NH2 (also: TFA salt) [Cell penetrating APIM-peptide RFSLK (Ac-MD-RFSLK-WKKKRKI-RRRRRRRRRRR)] | 19 µM
Ac-MDRWLVKWKKKRKIRRRRRRRRRRR-NH2 (also: TFA salt) [Cell penetrating APIM-peptide RWLVK (Ac-MD-RWLVK-WKKKRKI-RRRRRRRRRRR)] | 35 µM
